The target in data set [1] is CD44-HABD (UniProt P16070). Briefly: filter binding. Conditions: monothioate backbone, Filter binding: 1 nM biotinylated XA, 20 mM Tris pH 8.0, 150 mM NaCl, 40 min, room temperature, cell binding at room temperature, 30-60 min.
The target in data set [2] is CD44-HABD (UniProt P16070 20-178). Briefly: filter binding; Filter binding: 1 nM biotinylated XA, 20 mM Tris pH 8.0, 150 mM NaCl, 40 min, room temperature; cell binding at room temperature, 30-60 min. Conditions: protein: recombinant; label: biotin.

For orientation: Kd means a measure of binding affinity in units of concentration.

Chain of CD44-HABD (UniProt P16070) (P16070 20-178): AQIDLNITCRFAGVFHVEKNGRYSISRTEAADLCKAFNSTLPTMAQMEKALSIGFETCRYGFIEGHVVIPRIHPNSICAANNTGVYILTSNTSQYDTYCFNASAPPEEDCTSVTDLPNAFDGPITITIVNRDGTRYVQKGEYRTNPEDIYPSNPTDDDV
Chain of CD44-HABD (UniProt P16070 20-178) (P16070 20-178): as above

On to “TTGGGGCCTGCAAGACGTCCATAGACACAG [XA4-NH2]”, for which, in data set [1] (X = T18 as amino-dU), the equilibrium dissociation constant (Kd) came to 137 nM.
Consider “TTGGGGCCTGCAAGACGTCCATAGACACAG [XA4-ADDA]”, for which the dissociation constant Kd in data set [1] (X = T18 as ADDA-conjugated amino-dU) was determined as 103 nM.
“TTAAGATCTGTTAGGGAACCAAGACGACAG [XA1-NH2]” showed a Kd in data set [1] (X = T9, T11 as 5-(aminoethyl-3-acrylimido)-dU) of 55.5 nM.
With “TTAAGATCTGTTAGGGAACCAAGACGACAG [XA1-ADDA]”, the Kd in data set [1] (X = T9, T11 as ADDA-conjugated amino-dU) came out at 78.3 nM.
Consider “TGCAGATACAGTAAACGTCCATAGACACAG [XA5-NH2]”, for which the Kd in data set [1] (X = T7, T18 as amino-dU) worked out at 137 nM.
The molecule “TTAAGATCTGCAATGTAACCATAGACACAG [XA9-ADDA]” had a dissociation constant (Kd) in data set [1] (X = T14 as ADDA-conjugated amino-dU) of 77.6 nM.
For “TGCAGATACAGTAAACGTCCATAGACACAG [XA5-ADDA]”, the Kd in data set [1] (X = T7, T18 as ADDA-conjugated amino-dU) turned out to be 125 nM.
“TTAAGATCTGCAATGTAACCATAGACACAG [XA9-NH2]” gave a Kd in data set [1] (X = T14 as amino-dU) of 111 nM.

B1: XA2-NH2 (XNA)
DNA: TGCAGATCTGCAAGGGAACCAAGGACACTAC
modifications: NH2 form; no X in the printed sequence, X position unknown; monothioate backbone
Consider B1, for which the Kd in data set [2] was 62.9 ± 10.3 nM.

B2: XA2-ADDA (XNA)
DNA: TGCAGATCTGCAAGGGAACCAAGGACACTAC
modifications: ADDA form; no X in the printed sequence, X position unknown; monothioate backbone
As for B2, the Kd in data set [2] came out at 109 ± 15.4 nM.

The values above are taken from paper PMC11852163, “Development and Characterization of CD44-Targeted X-Aptamers with Enhanced Binding Affinity for Cancer Therapeutics”.
